Data published in patent publication EP0672680A1.
Square brackets hold non-standard residues; d marks the D form.

Target: bovine lung-derived ANP receptor (bovine)
Experiment: competition radioligand binding: displacement of 125I-rat ANP from bovine lung membrane fraction, filter assay

Chain of bovine lung-derived ANP receptor (bovine) (P10730 42-537): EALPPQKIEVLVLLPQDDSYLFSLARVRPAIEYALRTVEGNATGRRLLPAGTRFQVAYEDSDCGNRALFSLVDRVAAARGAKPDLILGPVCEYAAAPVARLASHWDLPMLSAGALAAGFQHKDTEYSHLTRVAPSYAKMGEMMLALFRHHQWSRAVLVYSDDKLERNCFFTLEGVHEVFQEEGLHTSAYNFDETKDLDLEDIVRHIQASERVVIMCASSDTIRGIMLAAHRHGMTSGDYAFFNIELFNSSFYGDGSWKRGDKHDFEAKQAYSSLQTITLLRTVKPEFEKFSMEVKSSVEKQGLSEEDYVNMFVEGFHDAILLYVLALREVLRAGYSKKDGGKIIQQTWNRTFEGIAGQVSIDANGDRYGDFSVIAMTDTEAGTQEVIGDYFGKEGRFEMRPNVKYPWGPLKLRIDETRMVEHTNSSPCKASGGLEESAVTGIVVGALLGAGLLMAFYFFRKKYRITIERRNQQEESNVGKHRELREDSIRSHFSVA

B1: compound (j) (H-Phe-Gly-Gly-D-Arg-Ile-Asp-D-Arg-Ile-NH2) (peptide)
peptide: H-FGG[dR]ID[dR]I-NH2
SMILES: CC[C@H](C)[C@H](NC(=O)[C@@H](CCCNC(=N)N)NC(=O)[C@H](CC(=O)O)NC(=O)[C@@H](NC(=O)[C@@H](CCCNC(=N)N)NC(=O)CNC(=O)CNC(=O)[C@@H](N)Cc1ccccc1)[C@@H](C)CC)C(N)=O
How did the IC50 turn out when B1 was run?
The IC50 was 5400 nM.

B2: compound (i) (H-Phe-Gly-Gly-D-Arg-Ile-Asp-Arg-Ile-NH2) (peptide)
peptide: H-FGG[dR]IDRI-NH2
SMILES: CC[C@H](C)[C@H](NC(=O)[C@H](CCCNC(=N)N)NC(=O)[C@H](CC(=O)O)NC(=O)[C@@H](NC(=O)[C@@H](CCCNC(=N)N)NC(=O)CNC(=O)CNC(=O)[C@@H](N)Cc1ccccc1)[C@@H](C)CC)C(N)=O
Which IC50 does the source give for B2 here?
Its IC50 is 210 nM.
